System: Escherichia coli TOP10
Assay: shrunken log2 fold change of peptide-encoding DNA abundance (4.5 h post-induction vs induction); higher = less antimicrobial activity (less host growth inhibition)
Details: time post-induction: 4.5 h; library: site-saturation at positions 5, 18, 19, 20
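Further: peptides expressed intracellularly from a pBAD plasmid library in pooled LB shake-flask culture, induced with 0.3% L-arabinose, DNA abundance read by NGS, three biological replicates, DESeq2 with apeglm shrinkage.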

Sequence | shrunken log2 fold change
RRIRKRPPRLPRPRPRPLQGPRP | 0.154
RRIRARPPRLPRPRPRPQYSPRP | -0.0321
RRIRTRPPRLPRPRPRPTILPRP | -0.453
RRIRWRPPRLPRPRPRPDHQPRP | -0.197
RRIRRRPPRLPRPRPRPDAPPRP | 0.888
RRIRCRPPRLPRPRPRPSHYPRP | -0.349
RRIRGRPPRLPRPRPRPMMDPRP | 0.66
RRIRTRPPRLPRPRPRPYHAPRP | -0.236
RRIRSRPPRLPRPRPRPDQLPRP | -0.167
RRIRGRPPRLPRPRPRPKRLPRP | 0.217
RRIRTRPPRLPRPRPRPQPSPRP | -0.095
RRIRDRPPRLPRPRPRPDCCPRP | -0.0205
RRIRMRPPRLPRPRPRPVRKPRP | 0.136
RRIRIRPPRLPRPRPRPICYPRP | -0.325
RRIRVRPPRLPRPRPRPHDQPRP | 0.134
RRIRRRPPRLPRPRPRPMHPPRP | 0.552
RRIRPRPPRLPRPRPRPCPPPRP | -0.0276
RRIRHRPPRLPRPRPRPGDEPRP | -0.492
RRIRGRPPRLPRPRPRPMHFPRP | -0.0109
RRIRDRPPRLPRPRPRPMSMPRP | 0.017
RRIRIRPPRLPRPRPRPASWPRP | 0.0913
RRIRERPPRLPRPRPRPMEQPRP | -0.136
RRIRRRPPRLPRPRPRPAISPRP | -0.0296
RRIRQRPPRLPRPRPRPKHLPRP | 0.0736
RRIRARPPRLPRPRPRPPHGPRP | 0.788

Sequence | shrunken log2 fold change
RRIRGRPPRLPRPRPRPMQRPRP | 1.29
RRIRPRPPRLPRPRPRPSHEPRP | 0.0992
RRIRCRPPRLPRPRPRPRNKPRP | -0.102
RRIRNRPPRLPRPRPRPRVLPRP | 0.0234
RRIRYRPPRLPRPRPRPCADPRP | -0.21
RRIRDRPPRLPRPRPRPYHQPRP | -0.0205
RRIRGRPPRLPRPRPRPTIKPRP | 0.48
RRIRMRPPRLPRPRPRPPVVPRP | 0.753
RRIRIRPPRLPRPRPRPCETPRP | 0.105
RRIRCRPPRLPRPRPRPWIKPRP | -1.1
RRIRRRPPRLPRPRPRPYWEPRP | 0.0331
RRIRTRPPRLPRPRPRPKSPPRP | -0.0758
RRIRLRPPRLPRPRPRPWACPRP | -0.0699
RRIRGRPPRLPRPRPRPTFNPRP | 0.31
RRIRWRPPRLPRPRPRPISWPRP | 0.0165
RRIRWRPPRLPRPRPRPNRNPRP | -0.602
RRIRFRPPRLPRPRPRPIVGPRP | -0.0769
RRIRSRPPRLPRPRPRPFLRPRP | -0.0915
RRIRWRPPRLPRPRPRPCAKPRP | -0.0723
RRIRVRPPRLPRPRPRPNAEPRP | 0.0611
RRIRNRPPRLPRPRPRPIHCPRP | -0.244
RRIRRRPPRLPRPRPRPDSIPRP | -0.199
RRIRERPPRLPRPRPRPMFQPRP | -0.952
RRIRVRPPRLPRPRPRPIGYPRP | 0.117
RRIRRRPPRLPRPRPRPRLNPRP | 0.522

Sequence | shrunken log2 fold change
RRIRFRPPRLPRPRPRPNKSPRP | -0.67
RRIRLRPPRLPRPRPRPPWPPRP | 0.578
RRIRCRPPRLPRPRPRPALGPRP | 0.38
RRIRCRPPRLPRPRPRPWMHPRP | -0.621
RRIRGRPPRLPRPRPRPLPTPRP | 1.14
RRIRQRPPRLPRPRPRPNLKPRP | -0.196
RRIRNRPPRLPRPRPRPQKHPRP | -0.227
RRIRVRPPRLPRPRPRPWMPPRP | -0.199
RRIRCRPPRLPRPRPRPSGLPRP | 0.0264
RRIRQRPPRLPRPRPRPPHHPRP | 0.972
RRIRPRPPRLPRPRPRPVQNPRP | -0.234
RRIRWRPPRLPRPRPRPDRKPRP | -0.0752
RRIRNRPPRLPRPRPRPRIHPRP | -0.184
RRIRRRPPRLPRPRPRPTGEPRP | 0.337
RRIRRRPPRLPRPRPRPDQQPRP | 0.0145
RRIRQRPPRLPRPRPRPHWVPRP | 0.0288
RRIRWRPPRLPRPRPRPGAHPRP | 0.32
RRIRPRPPRLPRPRPRPLWLPRP | -0.0275
RRIRIRPPRLPRPRPRPTCVPRP | 0.00176
RRIRYRPPRLPRPRPRPKSQPRP | -0.176
RRIRRRPPRLPRPRPRPGTYPRP | -0.0906
RRIRNRPPRLPRPRPRPLDSPRP | -0.125
RRIRLRPPRLPRPRPRPYMMPRP | -0.594
RRIRHRPPRLPRPRPRPNDEPRP | -0.0904
RRIRFRPPRLPRPRPRPVLSPRP | -0.0531
